The RNAGym collection of RNA variant scans (doi:10.7554/elife.90254)

B1: OR4K15 (parent)
chain: GUUAACGGUCAUAGGCCAUGGAAACUAGGAGCACCAUUUCGCUGCCAGUGAAGAAAUGAACAAAGAAAAUCUGGGCCAGGCAGGCAUCAAAAGAAAUAGUCUUGCGCUCAACCAGAAAGUCUGUAAUCAUUUUAAGGGUA

Variants of: B1
Experiment: self-cleavage, relative activity (ratio to wild type); higher = more cleavage; in vitro, sequencing; the parent is a self-cleaving ribozyme

Variant	self-cleavage
GUUAACGGUCAUAGGCCAUGGAAACUAGGAGCCCCAUUUCGCUGCCAGUGAAGAAAUGAACAACGAAAAUCUGGGCCAGGCAGGCAUCAAAAGAAAUAGUCUUGCGCUCAACCAGAAAGUCUGUAAUCAUUUUAAGGGUA	1.61
GUUAACGGUCAUAGGCCAUGGAAACUAGGAGUACCAUUUCGCUGCCAGUGAAGAAAUGAACAAAGAAAAUCUGGGCCAGGCAGGCACCAAAAGAAAUAGUCUUGCGCUCAACCAGAAAGUCUGUAAUCAUUUUAAGGGUA	1.36
GUUAACGGUCAUAGGCCAUGGAAACUAGGAGCCCCAUUUCGCUGCCAGUGAAGAAAUGAACAGAGAAAAUCUGGGCCAGGCAGGCAUCAAAAGAAAUAGUCUUGCGCUCAACCAGAAAGUCUGUAAUCAUUUUAAGGGUA	1.98
GUUAACGGUCAUAGGCCAUGGAAACUAGGAGCCCCAUUUCGCUGCCAGUGAAGAAAUGAGCAAAGAAAAUCUGGGCCAGGCAGGCAUCAAAAGAAAUAGUCUUGCGCUCAACCAGAAAGUCUGUAAUCAUUUUAAGGGUA	1.57
GUUAACGGUCAUAGGCCAUGGAAACUAGGAGCCCCAUUUCGCUGCCAGUGAAGAAAUGGACAAAGAAAAUCUGGGCCAGGCAGGCAUCAAAAGAAAUAGUCUUGCGCUCAACCAGAAAGUCUGUAAUCAUUUUAAGGGUA	1.39
GUUAACGGUCAUAGGCCAUGGAAACUAGGAGUACCAUUUCGCUGCCAGUGAAGAAAUGAACAAAGAAAAUCUGGGCCAGGCAGGCAUCGAAAGAAAUAGUCUUGCGCUCAACCAGAAAGUCUGUAAUCAUUUUAAGGGUA	0.89
GUUAACGGUCAUAGGCCAUGGAAACUAGGAGUACCAUUUCGCUGCCAGUGAAGAAAUGAACAAAGAAAAUCUGGGCCAGGCAGGCAUCAAAAGAAGUAGUCUUGCGCUCAACCAGAAAGUCUGUAAUCAUUUUAAGGGUA	0.99
GUUAACGGUCAUAGGCCAUGGAAACUAGGAGUACCAUUUCGCUGCCAGUGAAGAAAUGAACAAAGAAAAUCUGGGCCAGGCAGGCAUCAAAAGAAAUAGUCUUGUGCUCAACCAGAAAGUCUGUAAUCAUUUUAAGGGUA	0.18
GUUAACGGUCAUAGGCCAUGGAAACUAGGAGUACCAUUCCGCUGCCAGUGAAGAAAUGAACAAAGAAAAUCUGGGCCAGGCAGGCAUCAAAAGAAAUAGUCUUGCGCUCAACCAGAAAGUCUGUAAUCAUUUUAAGGGUA	1.47
GUUAACGGUCAUAGGCCAUGGAAACUAGGAGUACCAUUUCGCUGCCAGUGAAGAAAUGAACAAAGAAAAUCUGGGCCAGGCAGGCAUCAAAAGAAAUAGUCUUGCGCUCAACCAGAUAGUCUGUAAUCAUUUUAAGGGUA	0.3
GUUAACGGUCAUAGGCCAUGGAAACUAGGAGUACCAUUUCGCUGCCAGUGAAGAAAUGAACAAAGAAAAUCUGGGCCAGGCAGGCAUCAAAAGAAAUAGUCUUGCGCUCAACCAGAAAGUCUGCAAUCAUUUUAAGGGUA	1.15
GUUAACGGUCAUAGGCCAUGGAAACUAGGAGUACCAUUUCGCUGCCAGUGAAGAAAUGAACAAAGAAAAUCUGGGCCAGGCAGGCAUCAAAAGAAAUAGUCUUGCGCUCAACCAGAAAGUCUGUAAUCAUUUUAAGGGCA	1.64
GUUAACGGUCAUAGGCCAUGGAAACUAGGAGUACCAUUUCGCUGCCAGUGAAGAAAUGAACAAAGAAAAUCUGGGCCAGGCAGGCAUCAAAAGAAAUAGUCUUGCGCUCAACCAGAAGGUCUGUAAUCAUUUUAAGGGUA	1.44
GUUAACGGUCAUAGGCCAUGGAAACUAGGAGCCCCAUUUCGCUGCCAGUGGAGAAAUGAACAAAGAAAAUCUGGGCCAGGCAGGCAUCAAAAGAAAUAGUCUUGCGCUCAACCAGAAAGUCUGUAAUCAUUUUAAGGGUA	1.64
GUUAACGGUCAUAGGCCAUGGAAACUAGGAGCCCCAUUUCGCUGCCAGUGUAGAAAUGAACAAAGAAAAUCUGGGCCAGGCAGGCAUCAAAAGAAAUAGUCUUGCGCUCAACCAGAAAGUCUGUAAUCAUUUUAAGGGUA	2.27
GUUAACGGUCAUAGGCCAUGGAAACUAGGAGUACCAUUUCGCUGCCAGUGAAGAAAUGAACAAAGAAAAUCUGGGCCAGGCAGGCAUCAAAAGAAAUAGUCUUGCGCUCAACCAGAAAGUCUGUAAUCACUUUAAGGGUA	1.26
GUUAACGGUCAUAGGCCAUGGAAACUAGGAGCCCCAUUUCGCUGCCAGUGAAGAAAUGAACAAAGGAAAUCUGGGCCAGGCAGGCAUCAAAAGAAAUAGUCUUGCGCUCAACCAGAAAGUCUGUAAUCAUUUUAAGGGUA	1.88
GUUAACGGUCAUAGGCCAUGGAAACUAGGAGUACCAUUUCGCUGCCAGUGAAGAAAUGAACAAAGAAAAUCUGGGCCAGGCAGGCAUCAAAAGAAAUAGUCUCGCGCUCAACCAGAAAGUCUGUAAUCAUUUUAAGGGUA	0.91
GUUAACGGUCAUAGGCCAUGGAAACUAGGAGUACCAUUUCGCUGCCAGUGAAGAAAUGAACAAAGAAAAUCUGGGCCAGGCAGGCAUCAAAAGAAAUAGUCUUGCGCUCAACCAGAAAGCCUGUAAUCAUUUUAAGGGUA	1.57
GUUAACGGUCAUAGGCCAUGGAAACUAGGAGCCCCAUUUCGCUGCCAGUGAAGAAAUGAACAAAGAAAAUCUGGGCCAGGCAGGCAUCAAAAGAAAUAGUCUUGCGCUCAACCAGAAAGUCUGUAAUCAUUUUAAGGGUA	1.35
GUUAACGGUCAUAGGCCAUGGAAACUAGGAGCCCCAUUUCGCUGCCAGUGAAGAAAUGAACAAAGAAUAUCUGGGCCAGGCAGGCAUCAAAAGAAAUAGUCUUGCGCUCAACCAGAAAGUCUGUAAUCAUUUUAAGGGUA	2.07
